Laboratory results reported in article PMC12519216.

Molecular target: complex III (ubiquinone cytochrome C oxidoreductase) (mouse (endogenous in cerebellum)) (UniProt Q9CZ13)
Experiment: native gel or EMSA; blue native PAGE (4 to 12% NativePAGE) of cerebellum mitochondria solubilised in 1% digitonin, WT and Mecr285/del10 mice; transferred to PVDF and immunoblotted; in-gel activity assays on parallel gels

With “complex III (ubiquinone cytochrome C oxidoreductase) (from UniProt Q9CZ13 35-480)” the stoichiometry N was 2.
